# From publication PMC10160106, “Symport and antiport mechanisms of human glutamate transporters” (Nature Communications, 2023)
# B1: MinCys EAAT3 K269C/W441C crosslinked using Hg2+ (EAAT3-X) (natural protein, human, UniProt P43005 1-524, looked up)
# chain: MGKPARKGAEWKRFLKNNWVLLSTVAAVVLGITTGVLVREHSNLSTLEKFYFAFPGEILMRMLKLIILPLIISSMITGVAALDSNVSGKIGLRAVVYYFATTLIAVILGIVLVVSIKPGVTQKVGEIARTGSTPEVSTVDAMLDLIRNMFPENLVQAAFQQYKTKREEVKPPSDPEMTMTEESFTAVMTTAISKTKTKEYKIVGMYSDGINVLGLIVFALVFGLVIGKMGEKGQILVDFFNALSDATMKIVQIIMWYMPLGILFLIAGCIIEVEDWEIFRKLGLYMATVLTGLAIHSIVILPLIYFIVVRKNPFRFAMGMAQALLTALMISSSSATLPVTFRCAEENNQVDKRITRFVLPVGATINMDGTALYEAVAAVFIAQLNDLDLGIGQIITISITATSASIGAAGVPQAGLVTMVIVLSAVGLPAEDVTLIIAVDCLLDRFRTMVNVLGDAFGTGIVEKLSKKELEQMDVSSEVNIVNPFALESTILDNEDSDTKKSYVNGGFAVDKSDTISFTQTSQF
# modifications: Hg2+ crosslink between C269 and C441
# notes: Homotrimer; also called crosslinked EAAT3-X; MiniCys EAAT3 K269C/W441C; source: HEK 293F, transfected, purified (Strep-Tactin, SEC in GDN), crosslinked with HgCl2; not shown: Strep-II, N-terminal, cleaved; GFP, N-terminal, cleaved
# Target: the molecule itself
# Experiment: cryo-EM structure; EAAT3-X in 0.01% GDN, 20 mM HEPES-Tris pH 7.4, in 200 mM NaCl and 20 mM L-glutamate, 300 mM KCl, 150 mM NMDG chloride or 300 mM NaCl; maps refined with C3 symmetry, then symmetry expansion and local classification of protomers
protein,measurement,value
B1,stoichiometry N,3
